Laboratory results from US20210186964.

Molecular target: Ub-AMC (ubiquitin-AMC), P0CG47
Sequence (P0CG47 whole entry, looked up): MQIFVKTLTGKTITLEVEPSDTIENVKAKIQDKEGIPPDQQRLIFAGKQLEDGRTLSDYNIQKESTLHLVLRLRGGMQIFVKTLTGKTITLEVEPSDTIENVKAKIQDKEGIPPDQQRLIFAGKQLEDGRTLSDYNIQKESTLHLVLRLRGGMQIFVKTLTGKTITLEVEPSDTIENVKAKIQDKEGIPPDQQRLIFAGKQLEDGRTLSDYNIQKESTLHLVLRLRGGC

B1: USP1/UAF1 complex (WT-USP1/UAF1) (protein)
chain 1: MPGVIPSESNGLSRGSPSKKNRLSLKFFQKKETKRALDFTDSQENEEKASEYRASEIDQVVPAAQSSPINCEKRENLLPFVGLNNLGNTCYLNSILQVLYFCPGFKSGVKHLFNIISRKKEALKDEANQKDKGNCKEDSLASYELICSLQSLIISVEQLQASFLLNPEKYTDELATQPRRLLNTLRELNPMYEGYLQHDAQEVLQCILGNIQETCQLLKKEEVKNVAELPTKVEEIPHPKEEMNGINSIEMDSMRHSEDFKEKLPKGNGKRKSDTEFGNMKKKVKLSKEHQSLEENQRQTRSKRKATSDTLESPPKIIPKYISENESPRPSQKKSRVKINWLKSATKQPSILSKFCSLGKITTNQGVKGQSKENECDPEEDLGKCESDNTTNGCGLESPGNTVTPVNVNEVKPINKGEEQIGFELVEKLFQGQLVLRTRCLECESLTERREDFQDISVPVQEDELSKVEESSEISPEPKTEMKTLRWAISQFASVERIVGEDKYFCENCHHYTEAERSLLFDKMPEVITIHLKCFAASGLEFDCYGGGLSKINTPLLTPLKLSLEEWSTKPTNDSYGLFAVVMHSGITISSGHYTASVKVTDLNSLELDKGNFVVDQMCEIGKPEPLNEEEARGVVENYNDEEVSIRVGGNTQPSKVLNKKNVEAIGLLGGQKSKADYELYNKASNPDKVASTAFAENRNSETSDTTGTHESDRNKESSDQTGINISGFENKISYVVQSLKEYEGKWLLFDDSEVKVTEEKDFLNSLSPS
chain 2: not shown
Km (Ub-AMC deubiquitination assay, USP1/UAF1 complex alone, no DNA): decreasing the Km from 0.79 µM to 0.33 µM
Km (Ub-AMC deubiquitination assay, USP1/UAF1 complex with fork DNA): decreasing the Km from 0.79 µM to 0.33 µM
